Source: the RNAGym collection of RNA variant scans (doi:10.1073/pnas.2313332121)

B1: TPR t1 (parent)
chain: GACCAAUCUGCCCUCAGAGCUCGAGAACAUCUUCGGAUGCAGAGGAGGCAGGCUUCGGUGGCGCGAUAGCGCCAACGUCCUCAACCUCCAAUGCAUCCCACCACAUGAUGAUGCCUGAAGAGCCUUGGUUUUUUG

Variants of: B1
Assay: polymerase ribozyme fitness, log enrichment relative to wild type (log ratio); higher = more active; in vitro selection for triplet polymerase activity
Procedure, shortened: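 Genotype fitness is the logarithm of its enrichment divided by wild-type enrichment, using inverse-variance-weighted averages of replicates. That logarithm is base 2. Enrichment was measured by Illumina sequencing of input and output libraries from one triplicate in vitro selection round, with frozen incubation at −7 °C, on PCR-built, transcribed mutant libraries of each subunit of a heterodimeric triplet polymerase ribozyme, retaining genotypes with ≥10 input reads and ≥1 read per output.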

In order of rising “polymerase ribozyme fitness (log ratio)” value:
1. A50U C56A G69C C80G C104G C115G C123U U130C  -8.59
2. G52A G60U C104G  -7.51
3. G51A G60U G113A U116A  -7.25
4. C49A U78A G117C G128A U131C U133G  -6.98
5. G51U U67A A75U C88A U106A U112C  -6.98
6. A50G U55G C79G A91C U109A  -6.64
7. C49G G107A  -6.49
8. C49G G71C A84U G110C  -6.35
9. C49U C70G C102A A111C U116A G120C  -6.27
10. G51U C64G A83C G113U C123G G127A  -6.21
11. C49U G77A A90U A91G C102A  -6.02
12. G51U A111U  -6.02
13. C49G G60U U78C C97A  -5.83
14. G51C U59A C82U C98U  -5.66
15. G51A U54G C73G C98U  -5.39
16. G51C U129A  -5.21
17. A50G U55C C88U G107C U112G C123G  -5.21
18. A50U C99U  -5.15
19. G52C G69A C114U  -5.1
20. G51C A100U  -5.07
21. G51A C62U U112A G113U  -4.77
22. G51U A111C  -4.77
23. C49G C70A G110A A121C  -4.74
24. C49G G117C  -4.72
25. G51A U96A  -4.59
26. C49U C86U C97U G117C C124A  -4.42
27. C49U C89U A105U  -4.2
28. C53A C72U C86U G110C  -3.78
29. G51A C85U  -3.77
30. G51U U125A  -3.77
31. G51A U112G  -3.74
32. G52A G63U C114A  -3.58
33. G52A C82U A90C G117C  -3.56
34. G52A G71C  -3.42
35. G52U C53U C62U C85U U129A  -3.42
36. A50U G52C G77U U130C  -3.17
37. C49U U96A  -3.17
38. A50C G61U C114U A118G  -3.14
39. C49U G117C  -3.03
40. G52U C62A  -2.89
41. C49G G117U  -2.86
42. C49G G128U  -2.74
43. A50C G61U C79A  -2.63
44. C53A C56A A84G U106C G113A  -2.51
45. G51A C62U  -2.43
46. A50G C85A  -2.34
47. G52A U106G A111C  -2.25
48. C49U C104A  -2.12
49. C49G G63U  -2.09
50. G51A U112C  -2.05
51. A50G A74U A91C  -2.03
52. A50C C73A U78G A90G  -1.98
53. G52A C72G G128C U130G  -1.87
54. A50G G60C  -1.81
55. C49U U106A U116C  -1.79
56. G51U C56A G69U U106C  -1.79
57. C49U A50U C82U  -1.71
58. C49U A50G  -1.68
59. C53A C72U C86G C115U  -1.64
60. C49G U92C  -1.53
61. C49U A66G G120C C123G  -1.48
62. C49U G58A U125A  -1.44
63. A50U G60A G93A  -1.39
64. G52U G61C U131A  -1.22
65. C49A U78A  -1.14
66. A50C G71U U130A  -0.942
67. C49U C72U  -0.879
68. A50U  -0.868
69. C49G A83U  -0.66
70. G52A G93A  -0.652
71. C49U C73U  -0.609
72. C49A U96C G120U  -0.575
73. G52A C73U C82U  -0.555
74. C49U C53U  -0.552
75. G52A G61A U132A  -0.488
76. C49U A118U  -0.365
77. C53A C62A G77C  -0.326
78. A50C  -0.212
79. C49U G52U G61A G120A  -0.105
80. A50C C76G C82A G120C  -0.0695
81. A50G  0.111
82. G52A U59A  0.487
83. C49G G69U C115U  0.956
84. C49U C104U C124A  1.02
